These results are taken from patent EP4725968A1 (Salubris (Chengdu) Biotech Co., Ltd., dated 2024).

Where a chain is given by its changes, count along the chain named.

The chains are these.
T1: GPC3-B peptide
T1 peptide: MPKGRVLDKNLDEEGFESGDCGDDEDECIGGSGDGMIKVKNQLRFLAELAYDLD

T2: GPC3-A peptide
T2 construct: Peptide of the GPC3 antigen
T2 peptide: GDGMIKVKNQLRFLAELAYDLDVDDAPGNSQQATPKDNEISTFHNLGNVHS

T3: GPC3-B8
T3 construct: also called long fragments containing GPC3-B3
T3 peptide: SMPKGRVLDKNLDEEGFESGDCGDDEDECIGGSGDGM

T4: GPC3-B3 (human)
T4 construct: Overlapping peptide of GPC3-B
T4 peptide: DKNLDEEGFESG

B1: GC90 (antibody, V domains shown)
VH: QVQLLESGGGLVQPGGSLRVSCAASGFTFNSYAMSWVRQAPGKGLEWVASIKSSGDRVQYADSVKGRFTISRDNSKNTVYLEMNSLRAEDTAIYYCAKPQWSSPQRTFEVWGQGTPVTVSS
VL: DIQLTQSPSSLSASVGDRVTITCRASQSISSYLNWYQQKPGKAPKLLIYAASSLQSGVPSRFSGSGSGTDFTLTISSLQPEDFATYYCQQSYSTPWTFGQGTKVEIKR
notes: Human IgG1 / kappa; also called GC90 monoclonal antibody; humanized monoclonal antibody GC90
B2: GC067 (antibody, V domains shown)
VH: EVQLLESGGGVVQPGRSLRLSCAASGFTFSSYAMHWVRQAPGKGLEWVAVISYDGSNKYYADSVKGRFTISRDNSKNTLYLQMNSLRAEDTAVYYCARRLRGSGMDVWGQGTPVTVSS
VL: not shown
notes: Detected with anti-human IgG-Fc-HRP
B3: GC010 (antibody, V domains shown)
VH: B2 VH with R99D, L100E, R101S, G102R, S103R, G104K, M105F, V107Y, P113T
VL: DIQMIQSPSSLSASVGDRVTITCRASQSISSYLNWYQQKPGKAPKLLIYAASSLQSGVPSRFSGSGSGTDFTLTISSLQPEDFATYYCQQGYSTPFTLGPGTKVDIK
notes: as for B2
B4: GC035 (antibody, V domains shown)
VH: B2 VH with Q13R, L100K, R101S, G104S, M105F, V107Y
VL: DIQLTQSPSSLSASVGDRVTITCRAGQTINNYLHWYQQKPGKAPKLLIFAASSLQSGVPSRFSGSGSGTDFTLTISSLQPEDFATYYCQQSYSPPLTFGGGTRVEIK
notes: as for B2
B5: GC025 (antibody, V domains shown)
VH: EVQLLESGGGVVQPGRSLRLSCAASGFTFSSYAMHWVRQAPGKGLEWVAVISYDGSNKYYADSVKGRFTISRDNSKNTLYLQMNSLRAEDTAVYYCARRQRAAIDYWGQGTTVTVSS
VL: DIQLTQSPSSLSASVGDRVTITCRASQSISSYLSWYQQKPGKAPKLLIYGASSLQSGVPSRFSGSGSGTDFTLTISSLQPEDFATYSCQQSYSTQFTFGPGTKVDIK
notes: as for B2
B6: GC139 (antibody, V domains shown)
VH: EVQLVESGGGLIQPGGSLRLSCAASGFTFSSYAMHWVRQAPGKGLEYVSAISSNGGSTYYADSVKGRFTISRDNSKNTLYLQMSSLRPDDTAVYYCVRGWIRPPPGSFDLWGQGTTVTVSS
VL: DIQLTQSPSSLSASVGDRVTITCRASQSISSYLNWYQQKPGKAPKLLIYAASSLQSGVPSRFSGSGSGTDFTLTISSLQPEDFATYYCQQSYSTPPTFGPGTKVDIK
notes: as for B2
B7: GC053 (antibody, V domains shown)
VH: B6 VH with V5L, I12V, D62N, S84G
VL: NIQMTQSPSSLSAFVGDRVTITCRASQSISRYLNWYQHKPGQAPKLLMYAASTLQDEVPSRFSGSGSGTYFTLTISSLEPEDFATYYCQQSYSTPPTFGGGTKVEIK
notes: as for B2
B8: GC147 (antibody, V domains shown)
VH: B6 VH with I12V, D62N, S84G, P88A, D89E, T91M, T116P
VL: AIRLTQSPSSLSASVGDRVSITCRASQSISTFLNWYQQKPGKAPNLLIYSASTLQSGVPSRFSGSGSGTDFTLTISSLQPEDFATYYCQQSYSSPPTFGQGTKLEIK
notes: as for B2
B9: GC037 (antibody, V domains shown)
VH: B6 VH with V5L, I12V, D62N, D73H, N74P, T78I, Y80F, Q82E, S84N, T116P
VL: AIRLTQFPSSLSASVGDRVTITCRARQSIDNYLNWYQEKPGKAPKLLIYAASSLQSGVPSRFSGSGSGTEFTLTISSLQPDDFAAYYCQQSYDSPPTFGQGTKVEIK
notes: as for B2
B10: GC011 (antibody, V domains shown)
VH: EVQLLESGGGVVQPGRSLRLSCAASGFTFSSYGMHWVRQAPGKGLEWVAVISYDGSNKYYADSVKGRFTISRDNSKNTLYLQMNSLRAEDTAVYYCAKNPSLDYWGQGTTVTVSS
VL: NIQMTQSPSSLSASVGDRVTITCRASQSITRYLNWYQQKPGKGPKLLIYAASRLQSGVPSRFSGSGSGTDFTLTISSLQPEDFATYYCQQSHSIPRTFGQGTKLEIK
notes: as for B2
B11: GC008 (antibody, V domains shown)
VH: EVQLLESGGGLVQPGGSMRLSCAASEIDFSVYALGWSRQAPGKQRELVATITTSSTTTYADSVKGRFTISRDNAKNTVYLQMNSLKPEDTAVYYCHTLRRTGSGIVPGRIWGQGTPVTVSS
VL: DIQLTQSPSSLSASVGDRVTITCQASQDIDNSVTWYQQRPGKAPSLLISDASILESGVPSRFSGRGSGTHFTLSITSLQPEDIATYYCQQYENLPITFGQGTRLEIK
notes: Detected with anti-human IgG-Fc-HRP in the ELISA, so it carried a human Fc
B12: hYP7HM (antibody, human IgG1, kappa, L234A L235A, V domains shown)
VH: EVQLVESGGGLVQPGGSLRLSCAASGFTFNKNAMNWVRQAPGKGLEWVGRIRNKTNNYATYYADSVKGRFTISRDDSKNSLYLQMNSLKTEDTAVYYCVAGNSFAYWGQGTLVTVSA
VL: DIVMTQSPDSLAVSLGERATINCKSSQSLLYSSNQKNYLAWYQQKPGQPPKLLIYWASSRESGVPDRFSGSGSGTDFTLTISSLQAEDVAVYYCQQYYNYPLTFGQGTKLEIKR
notes: Control anti-GPC3 antibody; also called control antibody hYP7HM; control anti-GPC3 antibody hYP7HM

T5 sequence (Q8CFZ4 25-558 limits assumed): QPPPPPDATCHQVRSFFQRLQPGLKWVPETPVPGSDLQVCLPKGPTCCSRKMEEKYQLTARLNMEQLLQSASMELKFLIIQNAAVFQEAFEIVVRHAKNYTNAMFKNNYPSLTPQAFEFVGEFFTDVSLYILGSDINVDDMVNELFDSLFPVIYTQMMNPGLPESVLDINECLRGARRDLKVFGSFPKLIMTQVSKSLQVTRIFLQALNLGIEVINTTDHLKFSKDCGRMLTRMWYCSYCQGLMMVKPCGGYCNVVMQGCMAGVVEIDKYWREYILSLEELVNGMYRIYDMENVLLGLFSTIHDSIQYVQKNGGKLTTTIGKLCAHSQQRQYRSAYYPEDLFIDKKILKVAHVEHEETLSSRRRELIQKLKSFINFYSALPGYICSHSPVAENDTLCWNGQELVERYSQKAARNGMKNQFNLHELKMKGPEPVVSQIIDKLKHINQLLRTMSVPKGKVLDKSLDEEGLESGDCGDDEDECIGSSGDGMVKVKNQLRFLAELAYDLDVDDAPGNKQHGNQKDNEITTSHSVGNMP

One experiment addresses T5, Mouse GPC3 (ACRO Biosystems, GP3-M52H3) (mouse, UniProt Q8CFZ4 25-558).
T5 construct: also called mouse Gpc3 protein; mouse GPC3 protein
Kind of experiment: ELISA, GPC3 protein coated at 6 µg/mL; × indicates no affinity recognition. On the technique in general: An ELISA detects its analyte on a solid surface through an enzyme-linked reagent.
With B1, the binding result is on record as “no binding (tested: 30 nM)”.

Another experiment has as its target T1, GPC3-B peptide. The experiment is described as follows: ELISA, peptide coated at 6 µg/mL.
For the molecule B2, the binding result is “binds”. On the same count and under the same terms, the result for B3 reads “binds”; that for B4, “binds”; that for B5, “binds”.

B6: the binding result was “binds”. Consider B7, for which the binding result was “binds”. The same measure, in the same setting: in the case of B8 it was “binds”; in that of B9, “binds”. Still for that read-out and setting: the result for B1 reads “binds”. Same read-out and setting: in the case of B10 it was “binds”; in that of B11, “binds”.

In the next experiment the target is T2, GPC3-A peptide. Kind of experiment: ELISA, peptide coated at 6 µg/mL.
For B12, the binding result was “binds”.

For a further experiment, the target named is T3, GPC3-B8. Kind of experiment: ELISA, overlapping peptide coated at 6 µg/mL.
For the molecule B1, the binding result is recorded as “binds”.

The target of the next experiment is T4, GPC3-B3. Kind of experiment: ELISA, overlapping peptide coated at 6 µg/mL.
Consider B1, for which the binding result was “binds”.
